US20180282719A1 (published 2018)
Like-named read-outs stand apart in the source and are kept apart here.

T1: recombinant soluble human IL-6 receptor (SR344) (human, UniProt P08887 20-344, biotinylated (sites not given) where immobilized via streptavidin or used in phage ELISA)
T1 construct: also called soluble IL-6 receptor; membrane-type IL-6 receptor (when biotinylated and immobilized on the chip)
T1 sequence (looked up): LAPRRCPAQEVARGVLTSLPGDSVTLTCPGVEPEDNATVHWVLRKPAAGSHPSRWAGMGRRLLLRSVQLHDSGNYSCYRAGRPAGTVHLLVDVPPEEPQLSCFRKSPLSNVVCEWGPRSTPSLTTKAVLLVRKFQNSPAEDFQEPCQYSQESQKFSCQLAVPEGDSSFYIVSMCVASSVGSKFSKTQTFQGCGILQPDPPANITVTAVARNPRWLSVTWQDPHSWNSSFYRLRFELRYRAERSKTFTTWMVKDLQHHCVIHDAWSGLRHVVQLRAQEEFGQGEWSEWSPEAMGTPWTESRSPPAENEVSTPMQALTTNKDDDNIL


What was measured:
[1] = biological target: T1, recombinant soluble human IL-6 receptor …; experiment: SPR Biacore T100, antibody on protein A/G chip, SR344 analyte, 37 C, ratio of pH 5.8 to pH 7.4
Method: (§1) Kinetic analysis of antigen-antibody reactions at pH 7.4 and pH 5.8 was carried out using a Biacore T100™ surface plasmon resonance system (GE Healthcare) for the four types of antibodies prepared: WT-IgG1, H54/L28-IgG1, H170/L82-IgG1, and Fv4-IgG1 (buffer: 10 mM MES (pH 7.4 or pH 5.8), 150 mM NaCl, 0.05% Surfactant P20 (polyoxyethelene sorbitan monolaurate)). The antibodies were bound to a sensor chip on which recomb-protein A/G (Pierce) was immobilized by amine coupling, and SR344 adjusted to an appropriate concentration was injected therein as an analyte. The association with and dissociation from SR344 of each type of antibody were observed on a real-time basis. All the measurements were carried out at 37° C. Association rate constants kₐ (1/Ms) and dissociation rate constants kd (1/s) were calculated using Biacore T100™ Evaluation Software (GE Healthcare), and dissociation constants KD (M) were calculated based on those values (Table 17).

[2] = biological target: T1, recombinant soluble human IL-6 receptor …; experiment: SPR Biacore T100, biotinylated SR344 on streptavidin chip (model of membrane-type IL-6 receptor), antibody as analyte, bound at pH 7.4, dissociation at pH 7.4, 37 C
[3] = biological target: T1, recombinant soluble human IL-6 receptor …; experiment: SPR Biacore T100, biotinylated SR344 on streptavidin chip (model of membrane-type IL-6 receptor), antibody 0.25 ug/mL as analyte, 37 C
Method: Binding to the membrane-type IL-6 receptor was evaluated by evaluating binding to the IL-6 receptor immobilized on a sensor chip. SR344 was biotinylated in accordance with a method known among persons with ordinary skill in the art, and the biotinylated SR344 was immobilized on the sensor chip via streptavidin using the affinity between streptavidin and biotin. All the measurements were carried out at 37° C. The mobile phase buffer was 10 mM MES (pH 5.8), 150 mM NaCl and 0.05% TWEEN® 20 (polyoxyethelene sorbitan monolaurate).
The pH-dependently-binding clones were injected under the condition of pH 7.4 to allow them to bind to SR344, and then, the pH-dependent dissociation of each clone at the pH of the mobile phase, pH 5.8, was observed. The results are shown in FIG. 21 (results for Fv1-M71, Fv1-M73, Fv3-M71, and Fv3-M73 are shown in FIG. 21, while results for other clones are shown in FIGS. 17 and 19). Analyses were carried out in the same manner as in Example 10 and the pH dependencies of the dissociation rate constants of all of the eleven types of clones are shown in Table 12.

[4] = biological target: T1, recombinant soluble human IL-6 receptor …; experiment: SPR Biacore T100, biotinylated SR344 on streptavidin chip (model of membrane-type IL-6 receptor), antibody as analyte, 37 C
[5] = biological target: T1, recombinant soluble human IL-6 receptor …; experiment: SPR Biacore T100, antibody on protein A/G chip, SR344 analyte, pH 5.8, 37 C
Method: as §1

[6] = biological target: T1, recombinant soluble human IL-6 receptor …; experiment: SPR Biacore T100, antibody on protein A/G chip, SR344 analyte, 37 C, ratio of pH 5.8 to pH 7.4; remark: listed apart in the source
Method: (§2) Kinetic analyses of antigen-antibody reactions at pH 5.8 and pH 7.4 were carried out using a Biacore™ T100 surface plasmon resonance system (GE Healthcare) on the four antibodies: humanized PM1 antibody (WT) and H3pI/L73, CLH5/L73, and H170/L82 produced in Examples 2 and 4 (buffer: 10 mM MES (pH 7.4 or pH 5.8), 150 mM NaCl, and 0.05% TWEEN® 20 (polyoxyethelene sorbitan monolaurate)). Various antibodies were bound onto a sensor chip immobilized with recomb-protein A/G (Pierce) by amine coupling. SR344 adjusted to concentrations of 9.8 to 400 nM was injected to the chip as an analyte. […] All the measurements were carried out at 37° C. Association rate constants kₐ (1/Ms) and dissociation rate constants kd (1/s) were calculated using Biacore T100™ Evaluation Software (GE Healthcare), and dissociation constants KD (M) were calculated on the basis of those values (Table 5). Moreover, the ratio of the affinities at pH 5.8 and pH 7.4 were calculated for each clone to evaluate pH-dependent binding. All the measurements were carried out at 37° C.

[7] = biological target: T1, recombinant soluble human IL-6 receptor …; experiment: SPR Biacore T100, antibody on protein A/G chip, SR344 analyte, pH 7.4, 37 C
Method: as §2

Binder	KD (pH 5.8)/KD (pH 7.4) [1]	kd (pH 5.8)/kd (pH 7.4) [1]	koff [2] [s⁻¹]	kd (pH 5.8)/kd (pH 7.4) [3]	kd (pH 5.8)/kd (pH 7.4) [4]	Kd [5] [nM]	koff [5] [s⁻¹]	kon [5] [M⁻¹ s⁻¹]	KD (pH 5.8)/KD (pH 7.4) [6]	Kd [7] [nM]	koff [7] [s⁻¹]	kon [7] [M⁻¹ s⁻¹]
H3pI/L73 (antibody, IgG1, V domains shown, tested as IgG1; also called H3pI/L73-IgG1; H3pl/L73) VH: QVQLQESGPGLVKPSETLSLTCAVSGHSISHDHAHSWVRQPPGEGLEWIGYISYSGITNYNPSLKGRVTISRDTSKNQFSLKLSSVTAADTAAYYCARSLARTTAMDYWGEGTLVTVSS VL: DIQMTQSPSSLSASVGDSVTITCQASQHISSHLNWYQQKPGKAPELLIYYGSHLHSGVPSRFSGSGSGTDFTFTISSLEAEDAATYYCGQGNRLPYTFGQGTKVEIE	–	–	0.00026	2.59	2.59	–	–	–	41.3	1.4	0.00074	540000
H170/L82 (antibody, IgG1, V domains shown, expressed and purified as IgG (IgG1); also called H170/L82-IgG1) VH: QVQLQESGPGLVKPSETLSLTCAVSGHSISHHHAHSWVRQPPGEGLEWIGYISYSGITHYNPHLKGRVTISRDTSKNQFSLKLSSVTAADTAAYYCARVLARITAMDHWGEGTLVTVSS VL: DIQMTQSPSSLSASVGDSVTITCQASQDISSHLNWYQQKPGKAPELLIYYGSHLHSGVPSRFSGSGSGTDFTFTISSLEAEDAATYYCGQGNRLPYTFGQGTKVEIE	61.9	11.4	–	–	–	100	0.013	120000	394	1.6	0.0011	680000

Now from value to binder:

KD (pH 5.8)/KD (pH 7.4) [1]	kd (pH 5.8)/kd (pH 7.4) [1]	koff [2] [s⁻¹]	kd (pH 5.8)/kd (pH 7.4) [3]	kd (pH 5.8)/kd (pH 7.4) [4]	Kd [5] [nM]	koff [5] [s⁻¹]	kon [5] [M⁻¹ s⁻¹]	KD (pH 5.8)/KD (pH 7.4) [6]	Kd [7] [nM]	koff [7] [s⁻¹]	kon [7] [M⁻¹ s⁻¹]	Binder
27.3	38.8	0.00047	5.56	5.56	26	0.037	1.4e+06	–	–	–	–	Fv4-IgG1 (antibody, VH3-IgG1 / VL3-CK) heavy: not shown light: DIQMTQSPSSLSASVGDSVTITCQASTDISSHLNWYQQKPGKAPELLIYYGSHLLSGVPSRFSGSGSGTDFTFTISSLEAEDAATYYCGQGNRLPYTFGQGTKVEIERTVAAPSVFIFPPSDEQLKSGTASVVCLLNNFYPREAKVQWKVDNALQSGNSQESVTEQDSKDSTYSLSSTLTLSKADYEKHKVYACEVTHQGLSSPVTKSFNRGEC
1.6	2.9	0.00025	1	1	3.1	0.0027	890000	2.4	2.1	0.001	510000	humanized PM1 antibody (wild type, WT) (antibody, human IgG1, kappa, V domains shown, IgG1; also called WT-IgG1; wild type humanized anti-IL-6 receptor antibody) VH: QVQLQESGPGLVRPSQTLSLTCTVSGYSITSDHAWSWVRQPPGRGLEWIGYISYSGITTYNPSLKSRVTMLRDTSKNQFSLRLSSVTAADTAVYYCARSLARTTAMDYWGQGSLVTVSS VL: DIQMTQSPSSLSASVGDRVTITCRASQDISSYLNWYQQKPGKAPKLLIYYTSRLHSGVPSRFSGSGSGTDFTFTISSLQPEDIATYYCQQGNTLPYTFGQGTKVEIKR
